The target of data set [1] is cardiac troponin I (cTnI) (UniProt P19429 2-210). The experiment in a line: electrochemical aptasensor (DPV, CV, EIS); DPV response 10 fg/mL-1.0 ug/mL, LOD 2.03 fg/mL; Rct 514 to 606 ohm with 100 ng/mL cTnI; Aptamer immobilization: 20 mM Tris-HCl, 5 mM MgCl2, 50 mM NaCl, pH 7.4, 4 C; cTnI incubation 1 h (serum samples: 10% serum in 20 mM Tris-HCl, 150 mM NaCl, pH 7.4, 37 C); DPV read in 0.8 M KNO3, CV/EIS in 0.1 M PBS with 5 mM [Fe(CN)6]3-/4-. The note with it: protein: commercial.

For data set [2], the target named is T1, myoglobin (Myo) (UniProt P02144 2-154).
T1 sequence: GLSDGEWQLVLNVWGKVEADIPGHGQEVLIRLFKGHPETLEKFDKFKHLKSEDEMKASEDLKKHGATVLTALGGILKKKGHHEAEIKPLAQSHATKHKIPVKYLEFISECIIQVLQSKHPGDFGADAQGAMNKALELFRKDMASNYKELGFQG
The experiment in a line: electrochemical aptasensor (DPV); 1 ng/mL; negligible current change; Aptamer immobilization: 20 mM Tris-HCl, 5 mM MgCl2, 50 mM NaCl, pH 7.4, 4 C; cTnI incubation 1 h (serum samples: 10% serum in 20 mM Tris-HCl, 150 mM NaCl, pH 7.4, 37 C); DPV read in 0.8 M KNO3, CV/EIS in 0.1 M PBS with 5 mM [Fe(CN)6]3-/4-. Conditions: protein: commercial.

Sequence of cardiac troponin I (cTnI) (P19429 2-210): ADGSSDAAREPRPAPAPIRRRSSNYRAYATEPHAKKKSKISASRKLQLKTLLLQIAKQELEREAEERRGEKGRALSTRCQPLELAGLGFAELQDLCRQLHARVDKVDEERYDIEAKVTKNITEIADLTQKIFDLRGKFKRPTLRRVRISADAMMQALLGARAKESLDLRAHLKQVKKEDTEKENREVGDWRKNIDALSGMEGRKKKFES

With CGTGCAGTACGCCAACCTTTCTCATGCGCTGCCCCCCTCTTA (ssDNA, 5'-SH-(C6) thiol linker) [Tro4], the figures for the binding result in data set [1] and in data set [2] were “binds” and “no binding”, respectively.

For the origin of these results see PMC11477680, “A Label-Free Electrochemical Aptamer Sensor for Sensitive Detection of Cardiac Troponin I Based on AuNPs/PB/PS/GCE”.
